The values below come from publication PMC4046702 (Journal of inorganic biochemistry, 2013).

This assay addresses HIF prolyl-4-hydroxylase 2 (PHD2), residues 178-426 (human, UniProt Q9GZT9 178-426). The experiment in a line: cell-based or functional assay.

Chain of HIF prolyl-4-hydroxylase 2 (PHD2), residues 178-426 (Q9GZT9 178-426): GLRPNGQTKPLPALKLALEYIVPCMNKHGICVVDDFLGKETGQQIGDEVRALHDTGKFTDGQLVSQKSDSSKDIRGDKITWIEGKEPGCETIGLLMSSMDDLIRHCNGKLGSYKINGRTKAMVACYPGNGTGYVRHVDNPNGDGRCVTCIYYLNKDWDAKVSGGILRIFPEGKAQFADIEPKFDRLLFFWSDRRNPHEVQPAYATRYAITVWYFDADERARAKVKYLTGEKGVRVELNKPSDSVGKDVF

B1: CODD peptide, HIF-1α 556-574 (M561A, M568A) (peptide)
peptide: DLDLEALAPYIPADDDFQL
Regarding B1, the “kcat/KM of CODD hydroxylation by PHD2 (steady-state, MALDI-TOF), 0 mM NaCl” value was determined as 16700 M⁻¹ s⁻¹ and the “kcat/KM of CODD hydroxylation by PHD2 (steady-state, MALDI-TOF), + 100 mM NaCl” value was found to be 5000 M⁻¹ s⁻¹.

B2: NODD peptide, HIF-1α 395-414 (F413Y) (peptide)
peptide: DALTLLAPAAGDTIISLDYG
Turning to B2, the “kcat/KM of NODD hydroxylation by PHD2 (steady-state, MALDI-TOF), 0 NaCl” value was determined as 667 M⁻¹ s⁻¹ and the “kcat/KM of NODD hydroxylation by PHD2 (steady-state, MALDI-TOF), + 100 mM NaCl” value was 833 M⁻¹ s⁻¹.
